According to patent US20240092919A1 (Ablynx, published 2024):
Positions count from the first letter of the chain named.

B1: T017000408 (VHH)
VHH: EVQLVESGGGVVQPGGSLRLSCVASGSVHKINFYGWYRQAPGKEREKVAHISIGDQTDYADSAKGRFTISRDESKNMVYLQMNSLRPEDTALYFCRAMSRIWPYDYWGQGTLVTVSS
B2: T017000498 (VHH)
VHH: B1 VHH with S27A, Y106W
B3: T017000515 (VHH)
VHH: B1 VHH with S27A, Y34L
B4: T017000776 (VHH)
VHH: B1 VHH with G26W, K30Q, R100K
B5: T017000521 (VHH)
VHH: B1 VHH with K30Q, I31L
B6: T017000538 (VHH)
VHH: B1 VHH with S27Y, I31L
B7: T017000759 (VHH)
VHH: B1 VHH with M98F, R100K, Y106W
B8: T017000442 (VHH)
VHH: B1 VHH with S27Y, I31L, W102Y
B9: T017000607 (VHH)
VHH: B1 VHH with G26W, S27D, K30Q, M98F, R100K
B10: T017000450 (VHH)
VHH: B1 VHH with S27Y, K30Q, Y34L
B11: T017000609 (VHH)
VHH: B1 VHH with S27D, K30Q, Y34L, M98F, R100K, W102Y
B12: T017000614 (VHH)
VHH: B1 VHH with S27Y, M98L
B13: T017000418 (VHH)
VHH: B1 VHH with S27A, I31L, W102Y
B14: T017000577 (VHH)
VHH: B1 VHH with G26W, S27D, K30Q, Y34L, W102Y
B15: T017000410 (VHH)
VHH: B1 VHH with S27Y, I31L, M98F, Y106W
B16: T017000411 (VHH)
VHH: B1 VHH with G26W, S27D
B17: T017000578 (VHH)
VHH: B1 VHH with G26Y, S27D, K30Q, I31L
B18: T017000473 (VHH)
VHH: B1 VHH with S27Y, K30Q, W102Y
B19: T017000742 (VHH)
VHH: B1 VHH with S27Y, K30Q, Y106W
B20: T017000588 (VHH)
VHH: B1 VHH with S27A, R100K
B21: T017000419 (VHH)
VHH: B1 VHH with S27A, I31L
B22: T017000423 (VHH)
VHH: B1 VHH with K30Q, Y34L
B23: T017000554 (VHH)
VHH: B1 VHH with G26Y, S27D, K30Q, Y34L, R100K, W102Y
B24: T017000611 (VHH)
VHH: B1 VHH with S27D, K30Q, M98F, R100K, W102Y
B25: T017000518 (VHH)
VHH: B1 VHH with G26Y, K30Q, I31L, Y34L
B26: T017000757 (VHH)
VHH: B1 VHH with S27A, I31L, Y34L, M98F, R100K, Y106W
B27: T017000750 (VHH)
VHH: B1 VHH with G26Y, S27A, K30Q
B28: T017000499 (VHH)
VHH: B1 VHH with S27Y, I31L, Y34L
B29: T017000432 (VHH)
VHH: B1 VHH with I31L, R100K
B30: T017000612 (VHH)
VHH: B1 VHH with S27D, K30Q, I31L, Y34L, M98L, R100K, W102Y
B31: T017000440 (VHH)
VHH: B1 VHH with G26W, S27D, I31L, R100K
B32: T017000547 (VHH)
VHH: B1 VHH with S27A, I31L, M98F
B33: T017000740 (VHH)
VHH: B1 VHH with G26W, S27D, K30Q, I31L, R100K, W102Y
B34: T017000566 (VHH)
VHH: B1 VHH with S27Y, I31L, Y34L, Y106W
B35: T017000530 (VHH)
VHH: B1 VHH with S27A, I31L, Y34L, G65D, W102Y
B36: T017000774 (VHH)
VHH: B1 VHH with S27D, K30Q, R100K
B37: T017000509 (VHH)
VHH: B1 VHH with S27A, Y34L, R100K, Y106W
B38: T017000505 (VHH)
VHH: B1 VHH with S27D, K30Q, I31L, Y34L, M98F, R100K, W102Y
B39: T017000413 (VHH)
VHH: B1 VHH with G26W, S27D, K30Q, I31L, R100K
B40: T017000415 (VHH)
VHH: B1 VHH with G26W, S27D, K30Q
B41: T017000550 (VHH)
VHH: B1 VHH with K30Q, Y34L, W102Y, Y106W
B42: T017000754 (VHH)
VHH: B1 VHH with S27Y, K30Q, Y34L, R100K
B43: T017000610 (VHH)
VHH: B1 VHH with S27D, K30Q, Y34L, M98L, R100K, W102Y
B44: T017000531 (VHH)
VHH: B1 VHH with Y34L, Y106W
B45: T017000589 (VHH)
VHH: B1 VHH with S27Y, I31L, Y106W
B46: T017000539 (VHH)
VHH: B1 VHH with S27Y, Y106W
B47: T017000608 (VHH)
VHH: B1 VHH with G26W, S27D, M98F, R100K
B48: T017000461 (VHH)
VHH: B1 VHH with S27D, K30Q
B49: T017000434 (VHH)
VHH: B1 VHH with I31L, W102Y
B50: T017000593 (VHH)
VHH: B1 VHH with S27A, I31L, R100K
B51: T017000443 (VHH)
VHH: B1 VHH with G26W, S27D, K30Q, R100K, W102Y
B52: T017000766 (VHH)
VHH: B1 VHH with S27Y, R100K, W102Y

Target: T1, Cynomolgus TCR(AEA41865/AEA41866)-zipper protein (cynomolgus monkey)
T1 construct: also called cyTCR-zipper protein; cynoTCR zipper
T1 TCR alpha: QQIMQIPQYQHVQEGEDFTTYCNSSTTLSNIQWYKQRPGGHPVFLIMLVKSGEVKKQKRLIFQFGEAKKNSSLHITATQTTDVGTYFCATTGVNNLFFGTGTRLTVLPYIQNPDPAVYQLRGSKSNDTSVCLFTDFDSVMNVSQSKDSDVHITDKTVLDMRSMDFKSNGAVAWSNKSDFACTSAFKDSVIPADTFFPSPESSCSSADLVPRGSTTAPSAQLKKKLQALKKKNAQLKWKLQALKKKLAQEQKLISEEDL
T1 TCR beta: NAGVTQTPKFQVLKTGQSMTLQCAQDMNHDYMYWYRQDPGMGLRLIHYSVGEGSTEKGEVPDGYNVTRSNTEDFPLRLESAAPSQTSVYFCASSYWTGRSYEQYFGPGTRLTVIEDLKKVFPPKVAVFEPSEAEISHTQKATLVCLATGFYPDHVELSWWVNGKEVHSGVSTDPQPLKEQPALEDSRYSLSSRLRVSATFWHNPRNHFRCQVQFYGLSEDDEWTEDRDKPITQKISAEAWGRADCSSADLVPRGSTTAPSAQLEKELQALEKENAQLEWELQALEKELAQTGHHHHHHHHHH
Experiment: SPR ProteOn off-rate screen

Point of comparison: B45, koff 0.00115 s⁻¹. Against it:
- B1 — 1.6-fold lower, 0.000714 s⁻¹
- B2 — 1.9-fold higher, 0.00223 s⁻¹
- B3 — within 1.5-fold, 0.00126 s⁻¹
- B4 — 2.2-fold lower, 0.000525 s⁻¹
- B5 — 2.4-fold higher, 0.00275 s⁻¹
- B6 — 1.5-fold lower, 0.000766 s⁻¹
- B7 — within 1.5-fold, 0.00101 s⁻¹
- B8 — within 1.5-fold, 0.00146 s⁻¹
- B9 — 3.6-fold lower, 0.000316 s⁻¹
- B10 — within 1.5-fold, 0.0017 s⁻¹
- B11 — within 1.5-fold, 0.00114 s⁻¹
- B12 — within 1.5-fold, 0.00116 s⁻¹
- B13 — 1.6-fold higher, 0.00187 s⁻¹
- B14 — 1.6-fold higher, 0.00188 s⁻¹
- B15 — within 1.5-fold, 0.00159 s⁻¹
- B16 — within 1.5-fold, 0.00156 s⁻¹
- B17 — 3-fold higher, 0.00349 s⁻¹
- B18 — 2.1-fold higher, 0.00238 s⁻¹
- B19 — 3.4-fold higher, 0.00391 s⁻¹
- B20 — 7.3-fold lower, 0.000158 s⁻¹
- B21 — within 1.5-fold, 0.0011 s⁻¹
- B22 — 1.6-fold higher, 0.00184 s⁻¹
- B23 — within 1.5-fold, 0.000767 s⁻¹
- B24 — within 1.5-fold, 0.00171 s⁻¹
- B25 — 23-fold higher, 0.0268 s⁻¹
- B26 — 1.9-fold lower, 0.000603 s⁻¹
- B27 — 3.2-fold higher, 0.00373 s⁻¹
- B28 — within 1.5-fold, 0.00106 s⁻¹
- B29 — 8.1-fold lower, 0.000142 s⁻¹
- B30 — within 1.5-fold, 0.00105 s⁻¹
- B31 — 3.3-fold lower, 0.000346 s⁻¹
- B32 — within 1.5-fold, 0.00156 s⁻¹
- B33 — 2.9-fold lower, 0.000391 s⁻¹
- B34 — within 1.5-fold, 0.00164 s⁻¹
- B35 — 1.6-fold higher, 0.00182 s⁻¹
- B36 — 2.7-fold lower, 0.000431 s⁻¹
- B37 — 1.9-fold lower, 0.000609 s⁻¹
- B38 — within 1.5-fold, 0.00143 s⁻¹
- B39 — 4.8-fold lower, 0.000238 s⁻¹
- B40 — within 1.5-fold, 0.000918 s⁻¹
- B41 — 8.3-fold higher, 0.0095 s⁻¹
- B42 — 4.9-fold lower, 0.000237 s⁻¹
- B43 — within 1.5-fold, 0.000857 s⁻¹
- B44 — 2-fold higher, 0.00232 s⁻¹
- B46 — within 1.5-fold, 0.00151 s⁻¹
- B47 — 2.4-fold lower, 0.000472 s⁻¹
- B48 — 1.8-fold higher, 0.00206 s⁻¹
- B49 — within 1.5-fold, 0.00153 s⁻¹
- B50 — 6.1-fold lower, 0.00019 s⁻¹
- B51 — 5.5-fold lower, 0.000209 s⁻¹
- B52 — 4.8-fold lower, 0.000239 s⁻¹
